Results on 1 molecule are retold here after PMC9348634, “Insight into the mechanism of DNA synthesis by human terminal deoxynucleotidyltransferase”.

What all share (details): label: 5'-FAM; single strand
Data set [1] addresses T1, terminal deoxynucleotidyltransferase (TdT) (human, UniProt P04053 1-509). In words: MST; 5.0 mM Mg2+; MST with 5.0 mM Mg2+ (Mn2+ or Co2+ in other runs, concentration not given); buffer, salt, pH and temperature not in the material.
Data set [2] concerns the target T1, terminal deoxynucleotidyltransferase …. In words: MST; Co2+; Kd treated by authors as estimate; MST with 5.0 mM Mg2+ (Mn2+ or Co2+ in other runs, concentration not given); buffer, salt, pH and temperature not in the material.
For data set [3] the target is unchanged. In words: MST; Mn2+; Kd treated by authors as estimate; MST with 5.0 mM Mg2+ (Mn2+ or Co2+ in other runs, concentration not given); buffer, salt, pH and temperature not in the material.

T1 sequence (P04053 whole entry): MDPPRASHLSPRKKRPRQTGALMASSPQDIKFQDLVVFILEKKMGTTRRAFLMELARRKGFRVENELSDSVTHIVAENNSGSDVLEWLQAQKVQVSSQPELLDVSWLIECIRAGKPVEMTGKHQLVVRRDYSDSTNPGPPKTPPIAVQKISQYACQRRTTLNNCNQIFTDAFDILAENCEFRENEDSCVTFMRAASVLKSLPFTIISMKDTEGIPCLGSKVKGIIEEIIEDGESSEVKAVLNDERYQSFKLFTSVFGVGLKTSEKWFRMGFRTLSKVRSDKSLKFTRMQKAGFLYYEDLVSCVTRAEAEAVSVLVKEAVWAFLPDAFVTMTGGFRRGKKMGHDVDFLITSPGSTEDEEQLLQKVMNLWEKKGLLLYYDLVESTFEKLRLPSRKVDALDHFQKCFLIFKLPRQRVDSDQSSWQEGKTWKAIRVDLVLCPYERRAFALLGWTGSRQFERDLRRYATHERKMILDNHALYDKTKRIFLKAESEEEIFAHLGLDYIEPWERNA

B1: DNA primer FAM-GGAAGA (ssDNA)
DNA: GGAAGA
Take B1: the Kd (in general, the concentration at which binding is half-saturated) in data set [1] is 4600 ± 100 nM; in data set [2], 700 ± 100 nM; in data set [3], 800 ± 200 nM.
